Legend:
[1] = tested on: O=C(O)CNCP(=O)(O)O; experiment: Standard spectrophotometric kcat and KM determination (Example 7); format: biochemical; conditions: other: 20 mM HEPES pH 6.8, 10% ethylene glycol, 0.2 mM acetyl CoA, about 23° C.
Procedure: KM was calculated from the initial reaction rates obtained from concentrations of glyphosate ranging from 0.125 to 10 mM, using the Lineweaver-Burke transformation of the Michaelis-Menten equation. kcat/KM was determined by dividing the value determined for kcat by the value determined for KM.

[2] = GAT activity with other L-amino acid substrates (DTNB); format: biochemical
Procedure: (§1) GAT activity of several GAT polypeptides of the present invention was evaluated with respect to a number of amino acid substrates. The GAT polypeptide, AcCoA and amino substrate were incubated in 25 mM Hepes, pH 6.8, 10% ethylene glycol in the wells of a 96-well polystyrene plate. After 30 minutes, the reactions were stopped by the addition of 30 μl of 10 mM 5,5′-dithiobis-2-nitrobenzoate (DTNB) in 500 mM Tris, pH 7.5. After 2 minutes, absorbance was read at 412 nm in a Spectramax Plus plate reader (Molecular Devices, Sunnyvale, Calif.).

[3] = GAT activity with substrate L-aspartate (DTNB); format: biochemical
Procedure: as §1

[4] = GAT activity with substrate L-serine (DTNB); format: biochemical
Procedure: as §1

[5] = format: physicochemical; conditions: buffer, pH 7.2
Procedure: The half lives of several GAT polypeptides were also measured at 37.5° C. according to the following procedure. GAT polypeptides 401 (SEQ ID NO: 6), 17-15H3 (SEQ ID NO: 601), 20-8H12 (SEQ ID NO: 739), 22-13B12 (SEQ ID NO: 781), 22-15B4 (SEQ ID NO: 946) and 22-18C5 (SEQ ID NO: 795) were incubated in a matrix of 25 mM Hepes, pH 7.2, 10 mM KCl and 10% methanol (“HKM”). At various timepoints, aliquots were withdrawn and assayed in triplicate at 22° C. using the continuous spectrophotometric assay described in Example 7 using saturating concentrations of glyphosate (20 mM for 401, 5 mM for the rest) and AcCoA (167 uM). The standard error at each time point averaged about 2.9%. GAT activity was plotted as a function of incubation time and the data was fitted to a curve for exponential decay (y=e^−x), where y is enzyme activity and x is time in hours, from which half life was calculated.

[6] = tested on: soybean plants; experiment: T0 soybean greenhouse glyphosate spray, plant discoloration scores; format: in vivo
Procedure: Soybean plants expressing GAT variant transgenes were produced using the method of particle gun bombardment (see Klein et al. (1987) Nature 327:70-73) using a DuPont Biolistic PDS1000/He instrument. The selection agent used during the transformation process was hygromycin. Either the hygromycin selectable marker gene remained in the transgenic events or the hygromycin gene was excised by methods known in the art. DNA fragments were prepared with a synthetic constitutive promoter, a GAT variant and PinII terminator. The selectable marker gene, comprising the 35S CaMV promoter, HPT gene and NOS terminator, was cobombarded with the GAT gene variant as described above. Bombarded soybean embryogenic suspension tissue was cultured for one week in the absence of selection agent. Embryogenic suspension tissue was placed in liquid selection medium for 6 weeks. Putative transgenic suspension tissue was sampled for PCR analysis to determine the presence of the GAT gene. Putative transgenic suspension culture tissue was maintained in selection medium for 3 weeks to obtain enough tissue for plant regeneration. Suspension tissue was matured for 4 weeks using standard procedures; matured somatic embryos were desiccated for 4-7 days and then placed on germination induction medium for 2-4 weeks. Germinated plantlets were transferred to soil in cell pack trays for 3 weeks for acclimatization. Plantlets were potted to 10-inch pots in the greenhouse for evaluation of glyphosate resistance.
To determine the level of glyphosate resistance of transgenic soybeans expressing the GAT variant transgenes, T0 plants were sprayed with glyphosate (Roundup ULTRA MAX™) in the greenhouse. Plant resistance levels were evaluated by […] • 7=minor leaf/stem discoloration • 5=worse leaf/stem discoloration • 3=severely discolored plant or dying plant • 1=dead plant
One to four plants were sent to the greenhouse from each independent transgenic event. An additional 1-2 plants per event were grown in controlled environment growth chambers for seed production and were not sprayed with glyphosate. The greenhouse plants were sprayed at 1×, 2× or 4× glyphosate (1× glyphosate=26 ounces/acre of RoundUp ULTRA MAX™) 3-4 weeks after transfer to soil. The T0 plant discoloration scores with 2× and 4× spray rates are shown in Table 10 and Table 11, respectively.

[7] = tested on: tobacco plants; experiment: Herbicide spray tests of GAT expressing tobacco plants; format: in vivo, Nicotiana tabacum
Procedure: Tobacco shoots generated as described in EXAMPLE 9 were excised from the explants and transferred to basal root induction (BRI) medium composed of half-strength Murashige and Skoog (MS) medium, pH 5.7, with 1.5% sucrose, 0.3% Gelrite, 0-200 uM glyphosate and 400 ug/ml Timentin. Rooted plants and axillary shoots were clonally propagated by cutting the stem and transferring it to fresh BRI medium until the desired number of clones was obtained. Rooted plants were carefully removed from the solid medium. Prior to placing the plants into small pots of soil, the roots were washed to remove any remaining Gelrite. A protective plastic cover was kept over the plants for at least one week until the plants were well established.
To determine if GAT expressing tobacco plants could tolerate simulated field rate sprays of glyphosate, clonal lines of several events per GAT variant were tested. A typical test was set up as follows: One clone from each event was sprayed with 1 ml of solution containing the isopropylamine salt of glyphosate (Sigma P5671) and 0.125% Triton X-100, pH 6.8 such that the amount of active ingredient sprayed was equivalent to that present in commercial glyphosate products. For example, to achieve 32 oz/acre (1×) of herbicide containing 40% active ingredient (“ai”), 2.4 ul of 40% ai formulation was diluted into 1 ml water and sprayed on a plant in a 4-inch square pot (16 in^2). A mock application (0×) with surfactant only was also included. In some cases a second spray was applied 1-4 weeks later. Plants were kept in controlled growth rooms at 25° C. and 70% humidity with 16 hr light.
Seed-grown wild type plants were also sprayed. […] All 0× plants were healthy, including the non-GAT control plants. Three weeks later all of the surviving plants were sprayed with an 8× dose.

[8] = 10 days after 2X glyphosate (1× = 26 ounces/acre)

Work on “GAT polypeptide (glyphosate-N-acetyltransferase), SEQ ID NO:300 (Bacillus licheniformis DSM 13 = ATCC 14580; A39T/E119K/E67Q/E68K/H57N/I132T/I135V/K58Q/L35S/S62P/V114A)” yielded a Km [1] of 650 µM and a kcat [1] of 4.93 s⁻¹.

Molecule “GAT polypeptide (glyphosate-N-acetyltransferase), SEQ ID NO:457 (Bacillus licheniformis DSM 13 = ATCC 14580; A28V/E119K/E65Q/E67Q/E68K/G37R/I132T/I135V/I15L/I2L/K101R/K144R/K58Q/L145I/L97I/R18K/R92K/T89S/V114A/Y130F/Y45F)” has a Km [1] of 100 µM and a kcat [1] of 1.97 s⁻¹.

B1: 401: native GAT polypeptide corresponding to SEQ ID NO: 6 (protein, listed as Bacillus licheniformis)
chain: MIEVKPINAEDTYEIRHRILRPNQPLEACMYETDLLGGAFHLGGYYRGKLISIASFHKAEHSELEGEEQYQLRGMATLEGYREQKAGSTLIRHAEELLRKKGADLLWCNARTSVSGYYEKLGFSEQGEVYDIPPIGPHILMYKKLT
modifications: ST401 GAT
In the case of B1, the “number of amino acids with detectable activity, in addition to glyphosate” value [2] is reported as 12, the “activity relative to activity towards glyphosate” value ([2]; L-alanine, 1 mM) is reported as 33% and the “activity relative to activity towards glyphosate” value ([2]; L-asparagine, 1 mM) is reported as 27%. For the same molecule, the “activity relative to activity towards glyphosate” value ([2]; L-cysteine, 1 mM) was 50%, the “activity relative to activity towards glyphosate” value ([2]; L-glutamate, 1 mM) was 51% and the “activity relative to activity towards glyphosate” value ([2]; L-glutamine, 1 mM) was 32%. For the same molecule, the “activity relative to activity towards glyphosate” value ([2]; L-histidine, 1 mM) was 10%, the “activity relative to activity towards glyphosate” value ([2]; L-threonine, 1 mM) was 250% and the “activity relative to activity towards glyphosate” value ([2]; L-tyrosine, 1 mM) was 18%. For the same molecule, the “activity relative to activity towards glyphosate” value ([2]; L-valine, 1 mM) was 12%, the “activity on N-methyl derivatives of amino acids” value ([2]; N-methyl derivatives of L-aspartate (2 mM), L-alanine (10 mM) and glycine (sarcosine, 10 mM)) was “No detectable activity” and the “activity relative to activity towards glyphosate” value ([2]; glycine, 1 mM) was 21%. The “activity relative to activity towards glyphosate” value ([2]; the other protein amino acids, either undetected or less than 3%) was “less than 3%”, the “activity with L-aspartate compared with glyphosate” value [3] was “about as active” and the “kcat/KM % of glyph” value ([3]; Substrate Aspartate) was 85.5%. For the same molecule, the “activity with L-serine compared with glyphosate” value [4] was “about 4.7 times”, the “kcat/KM % of glyph” value ([4]; Substrate Serine) was 471% and the “Half-life” value [5] was 14 h.

B2: 18-28D9c: GAT transgene, SEQ ID NO:824 (nucleic acid)
DNA: ATGATAGAGGTGAAACCGATTAACGCAGAGGATACCTATGAACTAAGGCATAGAATACTCAGACCAAACCAGCCGATAGAAGCGTGTATGTTTGAAAGCGATTTACTTCGTGGTGCATTTCACTTAGGCGGCTTTTACAGGGGCAAACTGATTTCCATAGCTTCATTCCACCAGGCCGAGCACTCGGAACTCCAAGGCCAGAAACAGTACCAGCTCCGAGGTATGGCTACCTTGGAAGGTTATCGTGAGCAGAAAGCGGGATCAACTCTAGTTAAACACGCTGAAGAAATCCTTCGTAAGAGGGGGGCGGACATGCTTTGGTGTAATGCGAGGACATCCGCCTCAGGCTACTACAAAAAGTTAGGCTTCAGCGAGCAGGGAGAGATATTTGACACGCCGCCAGTAGGACCTCACATCCTGATGTATAAAAGGATCACATAA
modifications: Synthetic nucleic acid sequence; CDS (1)...(441); 18-28D9c
With B2 the “% EVENTS @ 3-6” value ([6]; 10 days after 2X glyphosate) was 74% (23), the “% EVENTS @ 7-8” value [6, 8] was 8% (3) and the “% EVENTS @ 3-6” value ([6]; 10 days after 4X glyphosate) was 43% (10). For the same molecule, the “% EVENTS @ 7-8” value ([6]; 10 days after 4X glyphosate) was 8% (2).

B3: 0—5D3: evolved GAT gene, SEQ ID NO:193 (nucleic acid)
DNA: ATGCTAGAGGTGAAACCGATTAACGCAGAGGATACCTATGAACTAAGGCATAGAATACTCAGACCAAACCAGCCGATAGAAGCGTGTATGTATGAAAGCGATTTACTTCGTGGTGCATTTCACTTAGGCGGCTATTACAGGGGCAAACTGATTTCCATAGCTTCATTCCACCAGGCCGAGCACTCAGAACTCCAAGGCCAGAAACAGTACCAGCTCCGAGGTATGGCTACCTTGGAAGGTTATCGTGAGCAGAAAGCGGGATCGAGTCTAATTAAACACGCTGAAGAAATTCTTCGTAAGAGGGGGGCGGACTTGCTTTGGTGTAATGCGCGGACATCCGCCTCAGGCTACTACAAAAAGTTAGGCTTCAGCGAGCAGGGAGAGATATTTGAAACGCCGCCAGTAGGACCTCACATCCTGATGTATAAAAGGATCACATAA
modifications: Synthetic nucleic acid sequence; 0_5D3
With B3 the “outcome two weeks after glyphosate spray” value ([7]; 0.5, 2 or 4× glyphosate (1× = 32 oz/acre of 40% ai), clonally propagated events, average of 5 leaves) was “survived the spraying procedure without signs of glyphosate damage”, the “outcome after second spray with an 8× dose” value ([7]; 8× glyphosate three weeks later) was “survived” and the “% EVENTS @ 3-6” value ([6]; 10 days after 2X glyphosate) was 11% (3). For the same molecule, the “% EVENTS @ 7-8” value [6, 8] was 15% (4).

B4: 22-15B4: GAT enzyme SEQ ID NO:789; Table 9 prints SEQ ID NO: 946 (protein)
chain: MIEVKPINAEDTYDLRHRVLRPNQPIEACMFDSDLMRSAFHLGGFYGGKLISVASFHQAEHTELQGQKQYQLRGVATLEGYREQKAGSSLVKHAEEILRKRGVDLLWCNARTSASGYYKKLGFSEQGEVFDTPPVGPHILMYKRIT
modifications: D_S00397832_GAT22-15B4
With B4 the “Half-life” value [5] was 26 h.

B5: 20-8H12: evolved GAT; polypeptide SEQ ID NO:739, gene SEQ ID NO:738 (protein)
chain: MIEVKPINAEDTYELRHRVLRPNQPIEACIFESDLMRGAFHLGGFYGGRLISVASFHQAEHSELQGQKQYQLRGMATLEGYREQKAGSSLVKHAEEILRKRGADLLWCNARTSASGYYKKLGFSEQGEVFDTPPVGPHILMYKRIT
modifications: D_S00341806_GAT20-8H12
With B5 the “Half-life” value [5] was 54 h.

B6: 22-18C5: GAT polypeptide, SEQ ID NO: 795 (protein)
chain: MIEVKPINAEDTYDLRHRVLRPNQPIEACMFESDLTRGAFHLGGFYGGKLISVASFHQAEHSELQGQKQYQLRGVATLEGYREQKAGTSLVKHAEEILRKRGVDLLWCNARTSASGYYRKLGFSEQGEVFDTPPVGPHILMYKRIT
modifications: D_S00398097_GAT22-18C5
In the case of B6, the “Half-life” value [5] is reported as 43 h.

From patent US7666644B2, “Glyphosate-N-acetyltransferase (GAT) genes” (Verdia, Inc., priority 2004, dated 2010)
